The values that follow come from patent publication US20090258013A1 (Genentech, published 2009).

T1: ESAM (library protein) (UniProt Q96AP7 30-248, limits assumed)
T1 sequence (looked up): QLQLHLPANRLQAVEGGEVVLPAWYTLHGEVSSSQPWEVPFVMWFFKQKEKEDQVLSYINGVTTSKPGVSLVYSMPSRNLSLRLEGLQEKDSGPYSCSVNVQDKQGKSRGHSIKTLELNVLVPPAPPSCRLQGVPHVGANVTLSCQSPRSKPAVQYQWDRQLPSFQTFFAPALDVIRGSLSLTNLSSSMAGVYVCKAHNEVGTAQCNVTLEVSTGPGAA

T2: TNFRSF10C (library protein) (UniProt O14798 26-236, limits assumed)
T2 sequence (looked up): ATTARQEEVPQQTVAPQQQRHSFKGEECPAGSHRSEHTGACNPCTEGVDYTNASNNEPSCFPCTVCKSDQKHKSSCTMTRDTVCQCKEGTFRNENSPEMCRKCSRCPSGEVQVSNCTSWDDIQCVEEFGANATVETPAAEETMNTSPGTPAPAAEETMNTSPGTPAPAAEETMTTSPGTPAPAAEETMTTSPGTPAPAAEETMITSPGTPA

T3: IGFBP4 (library protein) (UniProt P22692 22-258)
T3 sequence (looked up): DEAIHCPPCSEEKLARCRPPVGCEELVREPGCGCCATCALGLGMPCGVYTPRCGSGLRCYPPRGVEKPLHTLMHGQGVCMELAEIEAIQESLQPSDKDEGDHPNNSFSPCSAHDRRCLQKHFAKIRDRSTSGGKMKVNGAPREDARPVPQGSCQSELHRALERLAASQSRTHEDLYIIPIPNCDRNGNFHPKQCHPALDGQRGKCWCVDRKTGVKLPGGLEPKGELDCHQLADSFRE

T4: IL-19 (library protein) (UniProt Q9UHD0 25-177)
T4 sequence (looked up): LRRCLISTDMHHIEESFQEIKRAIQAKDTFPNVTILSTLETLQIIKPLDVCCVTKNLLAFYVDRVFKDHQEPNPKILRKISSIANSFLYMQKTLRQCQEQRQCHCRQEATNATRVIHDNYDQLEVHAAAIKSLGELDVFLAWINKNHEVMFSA

B1: gD-tagged full-length TIGIT expressed on stably transfected CHO cells (receptor)
chain: KYALADASLKMADPNRFRGKDLPVLMMTGTIETTGNISAEKGGSIILQCHLSSTTAQVTQVNWEQQDQLLAICNADLGWHISPSFKDRVAPGPGLGLTLQSLTVNDTGEYFCIYHTYPDGTYTGRIFLEVLESSVAEHGARFQIPLLGAMAATLVVICTAVIVVVALTRKKKALRIHSVEGDLRRKSAGQEEWSPSAPSPPGSCVQAEAAPAGLCGEQRGEDCAELHDYFNVLSYRSLGNCSFFTETG
notes: also called CHO-TIGIT; CHO cells expressing TIGIT
B2: CD96-Fc (amino acids 1-500 of CD96 fused to the Fc region of human IgG1) (Fc fusion, UniProt P40200 22-500, looked up, not shown: a dimerising Fc or GST)
chain: VWEKTVNTEENVYATLGSDVNLTCQTQTVGFFVQMQWSKVTNKIDLIAVYHPQYGFYCAYGRPCESLVTFTETPENGSKWTLHLRNMSCSVSGRYECMLVLYPEGIQTKIYNLLIQTHVTADEWNSNHTIEIEINQTLEIPCFQNSSSKISSEFTYAWSVENSSTDSWVLLSKGIKEDNGTQETLISQNHLISNSTLLKDRVKLGTDYRLHLSPVQIFDDGRKFSCHIRVGPNKILRSSTTVKVFAKPEIPVIVENNSTDVLVERRFTCLLKNVFPKANITWFIDGSFLHDEKEGIYITNEERKGKDGFLELKSVLTRVHSNKPAQSDNLTIWCMALSPVPGNKVWNISSEKITFLLGSEISSTDPPLSVTESTLDTQPSPASSVSPARYPATSSVTLVDVSALRPNTTPQPSNSSMTTRGFNYPWTSSGTDTKKSVSRIPSETYSSSPSGAGSTLHDNVFTSTARAFSEVPTTANGST
B3: OTOR (library protein) (other, UniProt Q9NRC9 18-128, looked up, not shown: a dimerising Fc or GST)
chain: VHGIFMDRLASKKLCADDECVYTISLASAQEDYNAPDCRFINVKKGQQIYVYSKLVKENGAGEFWAGSVYGDGQDEMGVVGYFPRNLVKEQRVYQEATKEVPTTDIDFFCE
B4: PVR-Fc fusion protein (Fc fusion, UniProt P15151 21-343, looked up)
chain: WPPPGTGDVVVQAPTQVPGFLGDSVTLPCYLQVPNMEVTHVSQLTWARHGESGSMAVFHQTQGPSYSESKRLEFVAARLGAELRNASLRMFGLRVEDEGNYTCLFVTFPQGSRSVDIWLRVLAKPQNTAEVQKVQLTGEPVPMARCVSTGGRPPAQITWHSDLGGMPNTSQVPGFLSGTVTVTSLWILVPSSQVDGKNVTCKVEHESFEKPQLLTVNLTVYYPPEVSISGYDNNWYLGQNEATLTCDARSNPEPTGYNWSTTMGPLPPFAVAQGAQLLIRPVDKPINTTLICNVTNALGARQAELTVQVKEGPPSEHSGISRN
notes: Found in a library of secreted proteins fused to hexahistidine or Fc tags; also called poliovirus receptor; not shown: Fc tag
B5: TIGIT-Fc (amino acids 1-138 of human TIGIT fused immediately preceding the Fc region of human IgG1) (Fc fusion)
chain: APLASGMMTGTIETTGNISAEKGGSIILQCHLSSTTAQVTQVNWEQQDQLLAICNADLGWHISPSFKDRVAPGPGLGLTLQSLTVNDTGEYFCIYHTYPDGTYTGRIFLEVLESSVAEHGARF
notes: Expressed in CHO cells; Biotinylated for flow cytometry and 125I-iodinated for radioligand assays; also called TIGIT-Fc fusion protein; not shown: Fc region of human IgG1
B6: CD226-Fc (amino acids 1-259 of CD226 fused to the Fc region of human IgG1) (Fc fusion, UniProt Q15762 19-259, looked up)
chain: EEVLWHTSVPFAENMSLECVYPSMGILTQVEWFKIGTQQDSIAIFSPTHGMVIRKPYAERVYFLNSTMASNNMTLFFRNASEDDVGYYSCSLYTYPQGTWQKVIQVVQSDSFEAAVPSNSHIVSEPGKNVTLTCQPQMTWPVQAVRWEKIQPRQIDLLTYCNLVHGRNFTSKFPRQIVSNCSHGRWSVIVIPDVTVSDSGLYRCYLQASAGENETFVMRLTVAEGKTDNQYTLFVAGGTVL
notes: range 1-259; also called DNAM; not shown: Fc region of human IgG1

Test [1] concerns the target B4. In words: competition radioligand binding, 125I Fc-ligand on receptor-expressing CHO cells, Scatchard. As to the method: (§1) Plasmids were transfected into CHO cells using Lipofectamine LTX (Invitrogen). Expression of gD-tagged proteins was verified by flow cytometry using the Alexa-647 anti-gD conjugate. Stably-transfected cell lines were sorted twice by FACS for purity before use. Fc-fusion proteins constructed as described above were iodinated (¹²⁵I) using the Iodogen method. Binding studies were carried out on stable transfectants in triplicate with 0.1-3 nM iodinated ligand. […] Cell suspensions were harvested onto nitrocellulose membranes (Millipore) and washed extensively.
(§2) Receptors were expressed on CHO cells, and all ligands were -Fc constructs. MFI was determined by flow cytometry with biotinylated Fc-ligands, after gating on receptor-positive cells. Binding affinity (Kd) was determined by competition radioligand binding assay. Kd is indicated (nM) and is the average value from at least 3 independent assays, except where indicated (*).

Test [2] deals with B5. The test is described as follows: flow cytometry, biotinylated ligand + streptavidin-PE vs receptor expression on CHO transfectants. The source says:
(§3) Fc fusion proteins were biotinylated via amine coupling using NHS-PEO4-Biotin (Pierce) in PBS. Binding of biotin-ligands was detected using phycoerythrin-conjugated streptavidin (Caltag). Mouse monoclonal antibody to gD tag (Genentech) was conjugated to AlexaFluor 647 (Invitrogen). Antibodies were conjugated to appropriate fluor labels using standard techniques. Cells were stained per the manufacturer's instructions. Prior to staining, cells were blocked with appropriate sera or purified IgG. Acquisition was performed on a FACSCalibur (BD Biosciences) and analyzed with JoFlo software (Tree Star, Inc.). Forward and side scatter gated viable cells.
Background: In flow cytometry, cells or beads pass a laser one at a time.

The target of test [3] is B4. In words: competition radioligand binding on CHO cells; upper end tied by Table 6 to PVR-Fc on CHO-TIGIT; PVR-Fc ligand on CHO-TIGIT (upper end of the range). The procedure:
as §1
(§4) Non-specific binding was determined using 2000-fold excess cold ligand and subtracted from total binding.

Test [4] deals with gD-tagged full-length PVR expressed on stably transfected CHO cells (UniProt P15151). The test is described as follows: flow cytometry, biotinylated Fc-ligand on receptor-expressing CHO cells (+++ MFI = 1000-4999).
The target of test [5] is B5. The test is described as follows: Octet biosensor, TIGIT-Fc loaded on an anti-human Fc sensor. The procedure: (§5) The resulting fusion protein was transiently expressed in and purified from CHO cells using standard affinity chromatography techniques. […] Proteins were tested for binding in HBS-P (10 mM Hepes, pH 7.4; 0.15M NaCl; 0.005% Surfactant P20). […] The biosensors were washed in buffer (30 seconds), placed into wells containing 5 μg/mL protein for three minutes, and washed again for 30 seconds. The sensors were reloaded and washed after every two binding cycles.

For test [6], the target named is T5, gD-tagged full-length PVR expressed on stably transfected CHO cells (UniProt P15151 21-417, limits assumed).
T5 construct: whole, on cells; also called CHO-PVR; PVR-expressing CHO cells
In words: flow cytometry, biotinylated ligand + streptavidin-PE vs receptor expression on CHO transfectants.
From the text: as §3

For test [7], the target named is T6, gD-tagged full-length PVRL2 expressed on stably transfected CHO cells (UniProt Q92692 32-538, limits assumed).
T6 construct: whole, on cells
The test is described as above.
From the text: as §3

For test [8], the target named is T1, ESAM (library protein). In words: Octet biosensor, TIGIT-Fc loaded on an anti-human Fc sensor. As to the method:
as §5
For orientation: Biolayer interferometry detects binding as a change in optical thickness at a sensor tip.

Test [9] has as its target TEK (library protein) (UniProt Q02763 23-748, limits assumed). The description is as above. As to the method: as §5
Test [10] has as its target T2, TNFRSF10C (library protein). Described as above. As to the method: as §5
Test [11] has as its target T3, IGFBP4 (library protein). Described as above. The procedure: as §5
Test [12] addresses T4, IL-19 (library protein). Described as above. The procedure: as §5
The target in test [13] is T5, gD-tagged full-length PVR expressed on …. The test is described as follows: flow cytometry, biotinylated Fc-ligand on receptor-expressing CHO cells (+++ MFI = 1000-4999).
From the text: as §3, §2

The target in test [14] is T7, gD-tagged full-length CD226 expressed on stably transfected CHO cells (UniProt Q15762 19-336, limits assumed).
T7 construct: whole, on cells; also called CHO-CD226
In words: flow cytometry, biotinylated ligand + streptavidin-PE vs receptor expression on CHO transfectants.
From the text: as §3

Test [15] addresses T8, gD-tagged full-length CD96 expressed on stably transfected CHO cells (UniProt P40200 22-585, limits assumed).
T8 construct: whole, on cells; also called CHO-CD96; CD96-expressing CHO cells
The description is as above.
From the text: as §3

Test [16] has as its target T5, gD-tagged full-length PVR expressed on …. In words: radioligand binding, iodinated TIGIT-Fc displaced by unlabeled TIGIT-Fc on PVR-expressing CHO cells. As to the method: as §1, §4

TEK (library protein), sequence (Q02763 23-748 limits assumed): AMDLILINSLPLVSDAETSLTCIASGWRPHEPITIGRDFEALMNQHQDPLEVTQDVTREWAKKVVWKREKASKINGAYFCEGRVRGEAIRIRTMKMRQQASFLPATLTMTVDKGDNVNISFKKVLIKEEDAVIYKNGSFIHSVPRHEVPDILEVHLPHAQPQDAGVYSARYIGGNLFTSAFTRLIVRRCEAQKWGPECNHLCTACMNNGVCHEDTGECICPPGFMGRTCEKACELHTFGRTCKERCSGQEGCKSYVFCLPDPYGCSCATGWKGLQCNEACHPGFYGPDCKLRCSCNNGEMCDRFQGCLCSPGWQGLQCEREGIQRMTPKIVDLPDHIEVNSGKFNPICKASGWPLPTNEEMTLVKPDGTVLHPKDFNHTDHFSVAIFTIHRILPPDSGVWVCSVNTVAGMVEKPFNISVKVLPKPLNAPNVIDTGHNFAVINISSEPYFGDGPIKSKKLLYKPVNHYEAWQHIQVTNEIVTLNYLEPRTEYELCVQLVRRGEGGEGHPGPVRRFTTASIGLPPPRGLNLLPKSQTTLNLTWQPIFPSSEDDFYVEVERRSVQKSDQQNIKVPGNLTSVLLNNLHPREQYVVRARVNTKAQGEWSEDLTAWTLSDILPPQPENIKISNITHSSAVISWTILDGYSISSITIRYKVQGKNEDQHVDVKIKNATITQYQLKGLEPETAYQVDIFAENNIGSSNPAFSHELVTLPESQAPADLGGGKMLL

With B1, the equilibrium dissociation constant (Kd) in test [1] was 3.15 nM; in [3], 1 to 3 nM. Also, the binding result in test [2] was “no binding”.

In turn, B2 yielded an MFI in test [4] of 1000 to 5000 mfi.

Regarding B3, the binding result in test [5] is “no binding”.

Consider B4, for which the binding result in test [6] and in test [7] was “no binding” each time.

In the case of B5, the binding result in [8], in test [9], in [10], in [11], in [12] and in [14] was “no binding” throughout. Besides, in test [15], the binding result is “no binding”. The molecule further had an MFI in test [13] of 1000 to 5000 mfi. Moreover, the “IC50 (read off the curve)” value in test [16] was ~4 nM.

The molecule B6 yielded an MFI in test [13] of 1000 to 5000 mfi.

By Kd is commonly meant a measure of binding affinity in units of concentration. A higher Kd goes with lower affinity.
